# Measurements as given in the MegaScale stability set (Tsuboyama et al. 2023).
# B1: EEHEE_rd4_0469 (parent)
# chain: ITIHVNGVTYHFDNPEEAEKFAQKMAKTYQLKMEIHNGEFHME
# Variants of: B1
# Assay: folding stability dG (cDNA display proteolysis); higher = more stable
# Details: PBS, room temperature
row,Variant,folding stability dG [kcal/mol]
1,ITIHVNGVTYHFDNEEEAEKFAQKMAKTYQLKMEIHNGEFHME,0.979
2,ITIHVNGVTYHFDNDEEAEKFAQKMAKTYQLKMEIHNGEFHME,0.883
3,ITIHVNGVTYHFDNKEEAEKFAQKMAKTYQLKMEIHNGEFHME,1.17
4,ITIHVNGVTYHFDNGEEAEKFAQKMAKTYQLKMEIHNGEFHME,1.04
5,ITIHVNGVTYHFDNHEEAEKFAQKMAKTYQLKMEIHNGEFHME,1.13
6,ITIHVNGVTYHFDNQEEAEKFAQKMAKTYQLKMEIHNGEFHME,1.03
7,ITIHVNGVTYHFDNFEEAEKFAQKMAKTYQLKMEIHNGEFHME,1.39
8,ITIHVNGVTYHFDNSEEAEKFAQKMAKTYQLKMEIHNGEFHME,1.1
9,ITIHVNGVTYHFDNLEEAEKFAQKMAKTYQLKMEIHNGEFHME,1.35
10,ITIHVNGVTYHFDNTEEAEKFAQKMAKTYQLKMEIHNGEFHME,1.14
11,ITIHVNGVTYHFDNYEEAEKFAQKMAKTYQLKMEIHNGEFHME,1.36
12,ITIHVNGVTYHFDNWEEAEKFAQKMAKTYQLKMEIHNGEFHME,1.53
13,ITIHVNGVTYHFDNREEAEKFAQKMAKTYQLKMEIHNGEFHME,1.34
14,ITIHVNGVTYHFDNNEEAEKFAQKMAKTYQLKMEIHNGEFHME,0.994
15,ITIHVNGVTYHFDNIEEAEKFAQKMAKTYQLKMEIHNGEFHME,1.27
16,ITIHVNGVTYHFDNMEEAEKFAQKMAKTYQLKMEIHNGEFHME,1.5
17,ITIHVNGVTYHFDNVEEAEKFAQKMAKTYQLKMEIHNGEFHME,1.21
18,ITIHVNGVTYHFDNAEEAEKFAQKMAKTYQLKMEIHNGEFHME,1.14
19,ITIHVNGVVYHFDNPEEAEKFAQKMAKTYQLKMEIHNGEFHME,1.25
20,ITIHVNGVYYHFDNPEEAEKFAQKMAKTYQLKMEIHNGEFHME,0.832

row,Variant,folding stability dG [kcal/mol]
1,ITIHVNGVQYHFDNPEEAEKFAQKMAKTYQLKMEIHNGEFHME,1.27
2,ITIHVNGVPYHFDNPEEAEKFAQKMAKTYQLKMEIHNGEFHME,1.51
3,ITIHVNGVWYHFDNPEEAEKFAQKMAKTYQLKMEIHNGEFHME,0.84
4,ITIHVNGVRYHFDNPEEAEKFAQKMAKTYQLKMEIHNGEFHME,1.4
5,ITIHVNGVSYHFDNPEEAEKFAQKMAKTYQLKMEIHNGEFHME,1.17
6,ITIHVNGVTNHFDNPEEAEKFAQKMAKTYQLKMEIHNGEFHME,-0.261
7,ITIHVNGVTQHFDNPEEAEKFAQKMAKTYQLKMEIHNGEFHME,-0.14
8,ITIHVNGVTMHFDNPEEAEKFAQKMAKTYQLKMEIHNGEFHME,0.573
9,ITIHVNGVTWHFDNPEEAEKFAQKMAKTYQLKMEIHNGEFHME,1.07
10,ITIHVNGVTSHFDNPEEAEKFAQKMAKTYQLKMEIHNGEFHME,-0.597
11,ITIHVNGVTIHFDNPEEAEKFAQKMAKTYQLKMEIHNGEFHME,0.806
12,ITIHVNGVTTHFDNPEEAEKFAQKMAKTYQLKMEIHNGEFHME,0.067
13,ITIHVNGVTFHFDNPEEAEKFAQKMAKTYQLKMEIHNGEFHME,1.19
14,ITIHVNGVTAHFDNPEEAEKFAQKMAKTYQLKMEIHNGEFHME,0.111
15,ITIHVNGVTRHFDNPEEAEKFAQKMAKTYQLKMEIHNGEFHME,0.338
16,ITIHVNGVTCHFDNPEEAEKFAQKMAKTYQLKMEIHNGEFHME,1.52
17,ITIHVNGVTLHFDNPEEAEKFAQKMAKTYQLKMEIHNGEFHME,0.756
18,ITIHVNGVTVHFDNPEEAEKFAQKMAKTYQLKMEIHNGEFHME,0.557
19,ITIHVNGVTKHFDNPEEAEKFAQKMAKTYQLKMEIHNGEFHME,0.307
20,ITIHVNGVTEHFDNPEEAEKFAQKMAKTYQLKMEIHNGEFHME,-0.243

row,Variant,folding stability dG [kcal/mol]
1,ITIHVNGVTHHFDNPEEAEKFAQKMAKTYQLKMEIHNGEFHME,0.792
2,ITIHVNGVTYHVDNPEEAEKFAQKMAKTYQLKMEIHNGEFHME,0.034
3,ITIHVNGVTYHNDNPEEAEKFAQKMAKTYQLKMEIHNGEFHME,-0.578
4,ITIHVNGVTYHLDNPEEAEKFAQKMAKTYQLKMEIHNGEFHME,0.299
5,ITIHVNGVTYHSDNPEEAEKFAQKMAKTYQLKMEIHNGEFHME,-0.408
6,ITIHVNGVTYHYDNPEEAEKFAQKMAKTYQLKMEIHNGEFHME,0.526
7,ITIHVNGVTYHTDNPEEAEKFAQKMAKTYQLKMEIHNGEFHME,-0.211
8,ITIHVNGVTYHGDNPEEAEKFAQKMAKTYQLKMEIHNGEFHME,-0.935
9,ITIHVNGVTYHHDNPEEAEKFAQKMAKTYQLKMEIHNGEFHME,-0.29
10,ITIHVNGVTYHADNPEEAEKFAQKMAKTYQLKMEIHNGEFHME,-0.214
11,ITIHVNGVTYHQDNPEEAEKFAQKMAKTYQLKMEIHNGEFHME,-0.822
12,ITIHVNGVTYHPDNPEEAEKFAQKMAKTYQLKMEIHNGEFHME,-0.616
13,ITIHVNGVTYHCDNPEEAEKFAQKMAKTYQLKMEIHNGEFHME,1.07
14,ITIHVNGVTYHIDNPEEAEKFAQKMAKTYQLKMEIHNGEFHME,0.352
15,ITIHVNGVTYHMDNPEEAEKFAQKMAKTYQLKMEIHNGEFHME,0.391
16,ITIHVNGVTYHKDNPEEAEKFAQKMAKTYQLKMEIHNGEFHME,-0.93
17,ITIHVNGVTYHWDNPEEAEKFAQKMAKTYQLKMEIHNGEFHME,0.481
18,ITIHVNGVTYRFDNPEEAEKFAQKMAKTYQLKMEIHNGEFHME,1.13
19,ITIHVNGVTYTFDNPEEAEKFAQKMAKTYQLKMEIHNGEFHME,1.07
